Assays:
Test in all cases: fluorescence polarisation
Rb^P R741S = molecular target: T1, Rb^P R741S (human, UniProt P06400 380-788, R741S)
T1 sequence: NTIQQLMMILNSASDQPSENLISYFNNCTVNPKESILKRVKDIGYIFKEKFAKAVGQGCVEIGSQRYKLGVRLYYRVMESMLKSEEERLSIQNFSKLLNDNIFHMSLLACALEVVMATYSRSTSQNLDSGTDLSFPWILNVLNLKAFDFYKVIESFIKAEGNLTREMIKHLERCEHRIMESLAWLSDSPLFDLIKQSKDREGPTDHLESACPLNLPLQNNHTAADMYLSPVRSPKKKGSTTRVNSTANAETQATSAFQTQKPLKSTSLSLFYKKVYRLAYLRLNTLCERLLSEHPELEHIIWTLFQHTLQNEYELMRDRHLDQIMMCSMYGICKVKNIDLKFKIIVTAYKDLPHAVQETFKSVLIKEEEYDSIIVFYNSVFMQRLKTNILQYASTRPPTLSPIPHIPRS

Rb^P K530I = molecular target: T2, Rb^P K530I (human, UniProt P06400 380-788, K530I)
T2 sequence: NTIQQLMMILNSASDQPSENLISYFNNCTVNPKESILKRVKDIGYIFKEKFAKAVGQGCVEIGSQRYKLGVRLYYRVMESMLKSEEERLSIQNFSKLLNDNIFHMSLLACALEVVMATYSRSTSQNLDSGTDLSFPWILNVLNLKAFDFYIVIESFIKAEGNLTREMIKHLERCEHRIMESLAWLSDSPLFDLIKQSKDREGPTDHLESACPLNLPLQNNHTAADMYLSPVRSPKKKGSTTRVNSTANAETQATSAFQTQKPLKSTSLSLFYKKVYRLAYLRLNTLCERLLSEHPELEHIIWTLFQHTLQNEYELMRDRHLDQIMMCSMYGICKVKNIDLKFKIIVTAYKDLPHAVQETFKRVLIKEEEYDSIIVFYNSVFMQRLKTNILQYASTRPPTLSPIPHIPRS

Rb^P R763T = molecular target: T3, Rb^P R763T (human, UniProt P06400 380-788, R763T)
T3 sequence: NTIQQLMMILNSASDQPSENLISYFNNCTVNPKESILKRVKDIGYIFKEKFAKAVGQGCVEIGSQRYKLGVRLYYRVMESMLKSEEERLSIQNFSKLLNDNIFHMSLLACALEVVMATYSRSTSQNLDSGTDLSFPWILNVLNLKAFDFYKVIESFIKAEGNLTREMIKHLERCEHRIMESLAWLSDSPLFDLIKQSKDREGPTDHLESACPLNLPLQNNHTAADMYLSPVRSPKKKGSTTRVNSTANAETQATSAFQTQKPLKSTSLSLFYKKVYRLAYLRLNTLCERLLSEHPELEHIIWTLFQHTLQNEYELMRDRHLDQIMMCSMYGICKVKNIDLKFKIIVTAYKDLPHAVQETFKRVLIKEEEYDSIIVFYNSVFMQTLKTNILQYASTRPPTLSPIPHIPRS

[1] = molecular target: T4, wild type Rb pocket domain (Rb^P) (human, UniProt P06400 380-788)
T4 sequence: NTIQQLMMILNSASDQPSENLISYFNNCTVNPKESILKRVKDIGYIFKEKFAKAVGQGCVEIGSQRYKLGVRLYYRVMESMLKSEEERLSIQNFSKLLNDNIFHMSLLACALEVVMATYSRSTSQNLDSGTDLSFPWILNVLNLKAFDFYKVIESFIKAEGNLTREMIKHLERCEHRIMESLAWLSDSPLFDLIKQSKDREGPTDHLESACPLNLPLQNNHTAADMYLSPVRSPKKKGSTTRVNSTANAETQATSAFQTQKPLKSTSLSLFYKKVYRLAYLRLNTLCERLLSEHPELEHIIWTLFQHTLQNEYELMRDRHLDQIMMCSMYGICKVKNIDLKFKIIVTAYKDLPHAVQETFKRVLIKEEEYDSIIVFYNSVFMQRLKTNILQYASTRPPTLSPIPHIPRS

Rb^P I703F = molecular target: T5, Rb^P I703F (human, UniProt P06400 380-788, I703F)
T5 sequence: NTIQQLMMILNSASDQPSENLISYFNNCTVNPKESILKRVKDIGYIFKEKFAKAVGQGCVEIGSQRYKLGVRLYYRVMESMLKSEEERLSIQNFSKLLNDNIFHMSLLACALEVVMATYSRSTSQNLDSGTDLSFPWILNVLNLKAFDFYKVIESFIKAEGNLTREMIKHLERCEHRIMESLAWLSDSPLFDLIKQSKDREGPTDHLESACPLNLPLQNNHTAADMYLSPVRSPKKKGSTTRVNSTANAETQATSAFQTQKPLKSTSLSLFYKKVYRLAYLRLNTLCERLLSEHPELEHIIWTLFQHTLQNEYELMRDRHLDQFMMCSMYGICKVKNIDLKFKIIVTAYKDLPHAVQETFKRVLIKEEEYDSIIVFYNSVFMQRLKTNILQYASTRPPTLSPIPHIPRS

Q: Which results are given for DLYCYEQLN (not fully specified; TMR fluorescent label (TMR-E7^LxCxE)) [TMR-E7^LxCxE (LxCxE peptide of the E7 oncoprotein from HPV, TMR-labeled)]?
A: binding result (Rb^P R741S): binds; binding result (Rb^P K530I): binds; binding result (Rb^P R763T): binds; Kd [1]: 5 nM; Kd (Rb^P I703F): 16 nM

Source: doi:10.1101/2024.09.22.614354 (bioRxiv, 2024)
